Measured values from US20120165503A1 (Merck Sharp & Dohme, published 2012).
Where a chain is given by its changes, count along the chain named. *1 amine or outer side, *2 acyl side, *3 side chain or, on linkers, in order; H or OH if unused. Where no end group is shown, it is not given here. Side-chain parts run from the residue outwards. [ ]: non-standard residue; d: D form. The star is where a group is joined. (mPEG)2 40 kDa = C3 = Cys(mPEG)240kDa, branched (mPEG)2, 40 kDa; γGlu = O=C(O)[C@H](CCC(=O)[*:2])N[*:1]; Palmitoyl = CCCCCCCCCCCCCCCC(=O)*; Met(O) = CS(=O)CC[C@H](N)C(=O)O; Aib = CC(C)(N)C(=O)O

B1: MM102 (peptide)
peptide: H[dS]QGTFTSDK([γGlu-γGlu-Palmitoyl])SKYLD[Aib]RRAQDFVQWLMNTE[γGlu]-NH2
modifications: N-terminus assumed
SMILES: CCCCCCCCCCCCCCCC(=O)N[C@@H](CCC(=O)N[C@@H](CCC(=O)NCCCC[C@H](NC(=O)[C@H](CC(=O)O)NC(=O)[C@H](CO)NC(=O)[C@@H](NC(=O)[C@H](Cc1ccccc1)NC(=O)[C@@H](NC(=O)CNC(=O)[C@H](CCC(N)=O)NC(=O)[C@@H](CO)NC(=O)[C@@H](N)Cc1c[nH]cn1)[C@@H](C)O)[C@@H](C)O)C(=O)N[C@@H](CO)C(=O)N[C@@H](CCCCN)C(=O)N[C@@H](Cc1ccc(O)cc1)C(=O)N[C@@H](CC(C)C)C(=O)N[C@@H](CC(=O)O)C(=O)NC(C)(C)C(=O)N[C@@H](CCCNC(=N)N)C(=O)N[C@@H](CCCNC(=N)N)C(=O)N[C@@H](C)C(=O)N[C@@H](CCC(N)=O)C(=O)N[C@@H](CC(=O)O)C(=O)N[C@@H](Cc1ccccc1)C(=O)N[C@H](C(=O)N[C@@H](CCC(N)=O)C(=O)N[C@@H](Cc1c[nH]c2ccccc12)C(=O)N[C@@H](CC(C)C)C(=O)N[C@@H](CCSC)C(=O)N[C@@H](CC(N)=O)C(=O)N[C@H](C(=O)N[C@@H](CCC(=O)O)C(=O)N[C@@H](CCC(N)=O)C(=O)O)[C@@H](C)O)C(C)C)C(=O)O)C(=O)O
B2: MM103 (peptide)
peptide: H[dS]QGTFTSDK([γGlu-γGlu-Palmitoyl])SKYLD[Aib]RRAQDFVQWLMNT[dK][γGlu]-NH2
modifications: N-terminus assumed
SMILES: CCCCCCCCCCCCCCCC(=O)N[C@@H](CCC(=O)N[C@@H](CCC(=O)NCCCC[C@H](NC(=O)[C@H](CC(=O)O)NC(=O)[C@H](CO)NC(=O)[C@@H](NC(=O)[C@H](Cc1ccccc1)NC(=O)[C@@H](NC(=O)CNC(=O)[C@H](CCC(N)=O)NC(=O)[C@@H](CO)NC(=O)[C@@H](N)Cc1c[nH]cn1)[C@@H](C)O)[C@@H](C)O)C(=O)N[C@@H](CO)C(=O)N[C@@H](CCCCN)C(=O)N[C@@H](Cc1ccc(O)cc1)C(=O)N[C@@H](CC(C)C)C(=O)N[C@@H](CC(=O)O)C(=O)NC(C)(C)C(=O)N[C@@H](CCCNC(=N)N)C(=O)N[C@@H](CCCNC(=N)N)C(=O)N[C@@H](C)C(=O)N[C@@H](CCC(N)=O)C(=O)N[C@@H](CC(=O)O)C(=O)N[C@@H](Cc1ccccc1)C(=O)N[C@H](C(=O)N[C@@H](CCC(N)=O)C(=O)N[C@@H](Cc1c[nH]c2ccccc12)C(=O)N[C@@H](CC(C)C)C(=O)N[C@@H](CCSC)C(=O)N[C@@H](CC(N)=O)C(=O)N[C@H](C(=O)N[C@H](CCCCN)C(=O)N[C@@H](CCC(N)=O)C(=O)O)[C@@H](C)O)C(C)C)C(=O)O)C(=O)O
B3: OXM67 (peptide)
peptide: HXQGTFTSDYSKYLDSRRAQDFVQWLMNTKRNRNNIAC
modifications: α-aminoisobutyric acid (Aib) at position 2; C1 = Cys(mPEG)5kDa at position 38; C-terminal amide
B4: OXM69 (peptide)
peptide: B3 peptide
modifications: Aib at position 2; C3 = Cys(mPEG)240kDa (branched (mPEG)2, 40 kDa) at position 38; C-terminal amide
B5: OXM35 (peptide)
peptide: B3 peptide with X2S
modifications: D-Ser at position 2; C3 = Cys(mPEG)240kDa (branched (mPEG)2, 40 kDa) at position 38; C-terminal amide
B6: OXM99 (peptide)
peptide: B3 peptide
modifications: not fully specified; Aib at position 2; methionine sulfoxide at position 27; C3 = Cys(mPEG)240kDa (40 kDa) at position 38; C-terminal amide
B7: OXM100 (peptide)
peptide: B3 peptide
modifications: Aib at position 2; methionine sulfoxide at position 27; C6 = Cys(mPEG)260kDa (60 kDa) at position 38; C-terminal amide
B8: OXM107 (peptide)
peptide: HXQGTFTSDYSKYLDSRRAQDFVCWLMNTKRNRNNIA
modifications: Aib at position 2; C3 = Cys(mPEG)240kDa (40 kDa) at position 24; methionine sulfoxide at position 27; C-terminal amide

How the values were obtained:
Test in all cases: cell-based or functional assay
[1] = target: T1, human GLP-1 receptor (human, UniProt P43220 24-463)
[2] = target: T2, human glucagon receptor (human, UniProt P47871 26-477)
[3] = target: T1, human GLP-1 receptor; remark: listed apart in the source
[4] = target: T2, human glucagon receptor; remark: listed apart in the source

T2 sequence (P47871 26-477): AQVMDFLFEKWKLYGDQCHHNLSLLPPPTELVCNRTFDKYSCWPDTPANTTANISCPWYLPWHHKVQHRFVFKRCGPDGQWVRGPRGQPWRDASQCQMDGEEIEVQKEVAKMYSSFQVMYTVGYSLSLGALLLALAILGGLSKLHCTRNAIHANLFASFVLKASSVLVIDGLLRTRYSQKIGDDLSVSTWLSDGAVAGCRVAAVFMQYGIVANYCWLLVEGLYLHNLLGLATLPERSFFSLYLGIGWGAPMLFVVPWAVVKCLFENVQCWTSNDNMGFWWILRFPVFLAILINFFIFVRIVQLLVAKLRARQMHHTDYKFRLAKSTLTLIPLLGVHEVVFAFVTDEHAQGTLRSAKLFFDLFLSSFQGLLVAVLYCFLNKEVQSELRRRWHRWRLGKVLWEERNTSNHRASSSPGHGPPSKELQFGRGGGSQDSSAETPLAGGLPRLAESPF

| Binder | hGLP-1R EC50 [1] | hGCGR EC50 [2] | GLP-1R EC50 [3] | % Activation of GCGR [4] | GCGR EC50 [4] |
| --- | --- | --- | --- | --- | --- |
| B1 | 0.034 nM | 0.003 nM | – | – | – |
| B2 | 0.026 nM | 0.005 nM | – | – | – |
| H[Aib]QGTFTSDYSKYLDSRRAQC((mPEG)2 40 kDa)FVQWLMNTKRNRNNIA-NH2 [OXM105] | – | – | 28.5 nM | 21% | 648 nM |
| HSQGTFTSDYSKYLDSRRAQDFVQWLMNTKRNRNNIAC (D-Ser at position 2; C1 = Cys(mPEG)5kDa at position 38; C-terminal amide) [OXM33] | – | – | 115 nM | 78% | 75.3 nM |
| HXQGTFTSDYSKYLDSRRAQDFVQWLMNTKRNRNNIAC (Aib at position 2; C2 = Cys(mPEG)20kDa at position 38; C-terminal amide) [OXM68] | – | – | 8.3 nM | 58% | 601 nM |
| B3 | – | – | 5.8 nM | 73% | 138 nM |
| B4 | – | – | 6 nM | 46% | > 1000 nM |
| B5 | – | – | 716 nM | 71% | 142 nM |
| HSQGTFTSDYSKYLDSRRAQDFVQWLMNTKRNRNNIAC (D-Ser at position 2; C2 = Cys(mPEG)20kDa at position 38; C-terminal amide) [OXM34] | – | – | 195 nM | 61% | 616 nM |
| B6 | – | – | 7.4 nM | 66% | > 1000 nM |
| B7 | – | – | 22.5 nM | 22% | > 1000 nM |
| H[Aib]QGTFTSDYSC((mPEG)2 40 kDa)YLDSRRAQDFVQWL[Met(O)]NTKRNRNNIA-NH2 [OXM124] | – | – | > 100 nM | – | – |
| H[Aib]QGTFTSDYC((mPEG)2 40 kDa)KYLDSRRAQDFVQWL[Met(O)]NTKRNRNNIA-NH2 [OXM121] | – | – | > 125 nM | – | – |
| B8 | – | – | 29.7 nM | 30% | > 1000 nM |
| H[Aib]QGTFTSDYSKYLDSRRAC((mPEG)2 40 kDa)DFVQWLMNTKRNRNNIA-NH2 [OXM103] | – | – | 6.2 nM | 75% | 203 nM |
